The values below come from article doi:10.1101/2024.01.09.574565, “Human coronavirus HKU1 recognition of the TMPRSS2 host receptor” (bioRxiv, 2024).

The labels stand for the following.
B1: HKU1 spike (S) glycoprotein: S357A (protein)
parent chain: MLLIIFILPTTLAVIGDFNCTNFAINDLNTTVPRISEYVVDVSYGLGTYYILDRVYLNTTILFTGYFPKSGANFRDLSLKGTTYLSTLWYQKPFLSDFNNGIFSRVKNTKLYVNKTLYSEFSTIVIGSVFINNSYTIVVQPHNGVLEITACQYTMCEYPHTICKSKGSSRNESWHFDKSEPLCLFKKNFTYNVSTDWLYFHFYQERGTFYAYYADSGMPTTFLFSLYLGTLLSHYYVLPLTCNAISSNTDNETLQYWVTPLSKRQYLLKFDNRGVITNAVDCSSSFFSEIQCKTKSLLPNTGVYDLSGFTVKPVATVHRRIPDLPDCDIDKWLNNFNVPSPLNWERKIFSNCNFNLSTLLRLVHTDSFSCNNFDESKIYGSCFKSIVLDKFAIPNSRRSDLQLGSSGFLQSSNYKIDTTSSSCQLYYSLPAINVTINNYNPSSWNRRYGFNNFNLSSHSVVYSRYCFSVNNTFCPCAKPSFASSCKSHKPPSASCPIGTNYRSCESTTVLDHTDWCRCSCLPDPITAYDPRSCSQKKSLVGVGEHCAGFGVDEEKCGVLDGSYNVSCLCSTDAFLGWSYDTCVSNNRCNIFSNFILNGINSGTTCSNDLLQPNTEVFTDVCVDYDLYGITGQGIFKEVSAVYYNSWQNLLYDSNGNIIGFKDFVTNKTYNIFPCYAGRVSAAFHQNASSLALLYRNLKCSYVLNNISLTTQPYFDSYLGCVFNADNLTDYSVSSCALRMGSGFCVDYNSPSSSSSRRKRRSISASYRFVTFEPFNVSFVNDSIESVGGLYEIKIPTNFTIVGQEEFIQTNSPKVTIDCSLFVCSNYAACHDLLSEYGTFCDNINSILDEVNGLLDTTQLHVADTLMQGVTLSSNLNTNLHFDVDNINFKSLVGCLGPHCGSSSRSFFEDLLFDKVKLSDVGFVEAYNNCTGGSEIRDLLCVQSFNGIKVLPPILSESQISGYTTAATVAAMFPPWSAAAGIPFSLNVQYRINGLGVTMDVLNKNQKLIATAFNNALLSIQNGFSATNSALAKIQSVVNSNAQALNSLLQQLFNKFGAISSSLQEILSRLDALEAQVQIDRLINGRLTALNAYVSQQLSDISLVKFGAALAMEKVNECVKSQSPRINFCGNGNHILSLVQNAPYGLLFMHFSYKPISFKTVLVSPGLCISGDVGIAPKQGYFIKHNDHWMFTGSSYYYPEPISDKNVVFMNTCSVNFTKAPLVYLNHSVPKLSDFESELSHWFKNQTSIAPNLTLNLHTINATFLDLYYEMNLIQESIKSLNNSYINLKDIGTYEMYVKWPWYVWLLISFSFIIFLVLLFFICCCTGCGSACFSKCHNCCDEYGGHHDFVIKTSHDD
B2: HKU1 isolate N1 (genotype A) RBD, wildtype, without avi tag (domain or fragment)
chain: RIPDLPDCDIDKWLNNFNVPSPLNWERKIFSNCNFNLSTLLRLVHTDSFSCNNFDESKIYGSCFKSIVLDKFAIPNSRRSDLQLGSSGFLQSSNYKIDTTSSSCQLYYSLPAINVTINNYNPSSWNRRYGFNNFNLSSHSVVYSRYCFSVNNTFCPCAKPSFASSCKSHKPPSASCPIGTNYRSCESTTVLDHTDWCRCSCLPDPITAYDPRSCSQKKSLVGVGEHCAGFGVDEEKCGVLDGSYNVSCLCSTDAFLGWSYDTCVSNNRCNIFSNFILNGINSGTTCSNDLLQPNT
notes: also called HKU1 RBD; HKU1 RBD (without avi tag); not shown: His8, C-terminal, kept

Biological target in the first series: not given
Assay: not given
The settings on record: glycan lost.
As for B1, the “other: neutralisation sensitivity, other: geometric mean ID50 dilution” value is “increases”.

For the next series, the target named is HKU1 isolate N1 (genotype A) RBD, wildtype, avi-tagged and biotinylated (UniProt Q5MQD0). In words: BLI. The settings on record: parent: est. 0.51; read off a plot.
Regarding “human TMPRSS2 ectodomain, active (S441), with the C379-T447C disulfide bond (from UniProt O15393) R470A”, the response was found to be 0.15 nm.

For the molecule “human TMPRSS2 ectodomain, active (S441), with the C379-T447C disulfide bond (from UniProt O15393) Y414A”, the response came out at 0.11 nm.

Turning to “human TMPRSS2 ectodomain, active (S441), with the C379-T447C disulfide bond (from UniProt O15393) Y469A”, the response worked out at 0.36 nm.

Still in this series, the particulars now being: read off a plot.
Consider “human TMPRSS2 ectodomain, active (S441), with the C379-T447C disulfide bond (from UniProt O15393) S412N”, for which the percent of parent turned out to be 77 % WT.

In the case of “human TMPRSS2 ectodomain, active (S441), with the C379-T447C disulfide bond (from UniProt O15393) T341S”, the percent of parent was determined as 61 % WT.

“human TMPRSS2 ectodomain, active (S441), with the C379-T447C disulfide bond (from UniProt O15393) L419M”: the percent of parent was found to be 30 % WT.

For the molecule “human TMPRSS2 ectodomain, active (S441), with the C379-T447C disulfide bond (from UniProt O15393) R413V”, the percent of parent is 64 % WT.

As to “human TMPRSS2 ectodomain, active (S441), with the C379-T447C disulfide bond (from UniProt O15393) Y414S”, the percent of parent worked out at 14 % WT.

Turning to “human TMPRSS2 ectodomain, active (S441), with the C379-T447C disulfide bond (from UniProt O15393) L419A”, the percent of parent was found to be 2.7 % WT.

In the case of “human TMPRSS2 ectodomain, active (S441), with the C379-T447C disulfide bond (from UniProt O15393) R409T”, the percent of parent came to 58 % WT.

On to “human TMPRSS2 ectodomain, active (S441), with the C379-T447C disulfide bond (from UniProt O15393) D417N”, for which the percent of parent was determined as 7.5 % WT.

Regarding “human TMPRSS2 ectodomain, active (S441), with the C379-T447C disulfide bond (from UniProt O15393) R470K”, the percent of parent stood at 2.1 % WT.

For “human TMPRSS2 ectodomain, active (S441), with the C379-T447C disulfide bond (from UniProt O15393) Y469N”, the percent of parent was 5.7 % WT.

On to “human TMPRSS2 ectodomain, active (S441), with the C379-T447C disulfide bond (from UniProt O15393) Y414L”, for which the percent of parent stood at 2.2 % WT.

For the molecule “human TMPRSS2 ectodomain, active (S441), with the C379-T447C disulfide bond (from UniProt O15393) A468P”, the percent of parent was found to be 57 % WT.

Turning to “human TMPRSS2 ectodomain, active (S441), with the C379-T447C disulfide bond (from UniProt O15393) S463Y”, the percent of parent came to 2.3 % WT.

For “human TMPRSS2 ectodomain, active (S441), with the C379-T447C disulfide bond (from UniProt O15393) S463T”, the percent of parent was found to be 2.7 % WT.

“human TMPRSS2 ectodomain, active (S441), with the C379-T447C disulfide bond (from UniProt O15393) R409K”: the percent of parent was found to be 36 % WT.

For the molecule “human TMPRSS2 ectodomain, active (S441), with the C379-T447C disulfide bond (from UniProt O15393) S441A”, the percent of parent is 95 % WT.

For the molecule “human TMPRSS2 ectodomain, active (S441), with the C379-T447C disulfide bond (from UniProt O15393) S463F”, the percent of parent came to 2.3 % WT.

On to “human TMPRSS2 ectodomain, active (S441), with the C379-T447C disulfide bond (from UniProt O15393) V415I”, for which the percent of parent was found to be 47 % WT.

Regarding “human TMPRSS2 ectodomain, active (S441), with the C379-T447C disulfide bond (from UniProt O15393) R413K”, the percent of parent was 52 % WT.

With “human TMPRSS2 ectodomain, active (S441), with the C379-T447C disulfide bond (from UniProt O15393) K340D”, the percent of parent turned out to be 38 % WT.

The target in a further series is human TMPRSS2 ectodomain harboring the S441A residue substitution and the C379-T447C disulfide bond (UniProt O15393). In words: BLI. The settings on record: parent: est. 0.54; read off a plot.
For the molecule “HKU1 isolate N1 (genotype A) RBD, wildtype, avi-tagged and biotinylated (from UniProt Q5MQD0) Y528A”, the response stood at 0.11 nm.

Turning to “HKU1 isolate N1 (genotype A) RBD, wildtype, avi-tagged and biotinylated (from UniProt Q5MQD0) H488A”, the response worked out at 0.17 nm.

With “HKU1 isolate N1 (genotype A) RBD, wildtype, avi-tagged and biotinylated (from UniProt Q5MQD0) E505A”, the response was 0.37 nm.

Another series deals with human TMPRSS2 ectodomain, active (S441), with the C379-T447C disulfide bond (human, UniProt O15393 106-492, T447C). Briefly: enzyme inhibition kinetics (fluorogenic peptide substrate); 5 nM TMPRSS2 with serial dilutions of Boc-QAR-AMC in the presence of 215, 72 or 24 nM HKU1 RBD, 2 min preincubation, 22 °C; fit of competitive inhibition. As to conditions: both partners purified.
As to B2, the inhibitory constant (Ki) worked out at 38 ± 5 nM.

By Ki is commonly meant a dissociation constant, usually derived from enzyme kinetics or from competition with a known ligand.
